Test results from patent US20230263916A1 (NANOMAB TECHNOLOGY, published 2023).

Experiments:
[1] = target: T1, Her2 on cells (BT474, high expression; MDA-MB-231, low expression) (UniProt P04626 23-1255, limits assumed); assay: flow cytometry on MDA-MB-231 cells (low Her2), anti-HA Alexa Fluor488
T1 construct: whole, on cells; Endogenous Her2 of tumour cell lines
Description: (§1) (3) Cells were divided into 96-well plates after washing, where number of cells per sample was 3×10⁵. The dilute nanobodies were then added to each well, mixed and placed at 4° C. for 20 min.
(§2) (4) Cells were washed twice with PBS and resuspended with 100 uL PBS. […] Mouse anti-HA Alexa Fluor488 labeled antibody was then added to each sample, mixed and placed at 4° C. for 20 min.
(§3) (5) Cells were washed twice with PBS and then resuspended to the flow tube with 300 uL PBS. Samples were kept on ice in dark condition. Detection was held via machine.

[2] = target: T2, human HER2 antigen protein (human, UniProt P04626 23-652); assay: Biacore, Her2 immobilised on CM-5 chip
T2 construct: Antigen coated in the ELISA of Embodiment 5 and immobilised on the CM-5 chip in Embodiment 7; Embodiment 7 says only 'antigen protein Her2' without species or construct; also called antigen protein Her2
Description: (1) Immobilization: the stationary phase antigen protein Her2 was immobilized on the surface of CM-5 sensor chip by carboxyl amino reaction.
(3) Chip regeneration: when next antibody was determined, the chip was washed with 10 mM Glycine.

[3] = target: T3, human Her2 (ECD)-Fc protein (human, UniProt P04626 23-652); assay: PE-ELISA, A405 of antigen well over control well
T3 construct: extracellular domain; Made in HEK293F cells; also called hHer2 (ECD)-Fc antigen; Her2 (ECD)-Fc antigen; not shown: TEV restriction site at the C-terminal of hHer2 (ECD); IgG1 Fc of the pFUSE-IgG1 vector
Description: (§4) (1) 10 μg Her2 (ECD)-Fc antigen (10 μg Fc in NaHCO₃ as control) dissolved in 100 mM NaHCO₃ (pH 8.2) was coupled to a NUNC plate then incubated at 4° C. overnight.
(§5) (5) The unbound antibody was washed off with PBST.
(§6) (6) When the OD value of the sample was over 3 times of the OD value of the control sample (Ratio+/−>3), the tested sample was determined to be a positive clone. […] Then all the positive clones were transferred to LA medium for plasmid extraction and sequencing.

[4] = target: T3, human Her2 (ECD)-Fc protein; assay: PE-ELISA, crude extract on antigen-coated plate
Description: as §4, §5, §6

[5] = target: T1, Her2 on cells (BT474, high expression; …); assay: flow cytometry on BT474 cells (high Her2), anti-HA Alexa Fluor488
Description: as §1, §2, §3

B1: Nanobody No. 17 (VHH)
VHH: QVQLQESGGGSVQAGGSLRLSCTASGFTFDDSDMGWYRQAPGNECELVSTISSDGSTYYADSVKGRFTISQDNAKNTVYLQMNSLKPEDTAVYYCADVQIPYGLGTCESLDYWGRGTQVTVSS
notes: camel VHH from pMECs phage display vector; also called Antibody no; 17; not shown: tags (HA, His) implied by anti-HA detection and nickel column
B1 gave a positive rate [1] of 12.3%, a Kd [2] of 6.68 nM and a koff [2] of 0.00421 s⁻¹. For the same binder, the kon [2] was 631000 M⁻¹ s⁻¹, the “Ratio(+/-)” value [3] was 23.8 and the “A405+” value [4] was 1.88 A405. It also gave a positive rate [5] of 99.9%.

B2: Nanobody No. 23 (VHH)
VHH: QVQLQESGGGSVQAGGSLKLSCSASGFTFDDTDMGWYRQAPGNECELVSTISSDGTTYYTDSVKGRFTISQDNAKNTVYLQMNSLKPEDTAVYYCAAINSGYELGTCESLDYWGRGTQVTVSS
notes: camel VHH from pMECs phage display vector; also called Antibody no; 23; not shown: tags (HA, His) implied by anti-HA detection and nickel column
B2 gave a positive rate [1] of 11.5%, a Kd [2] of 3.73 nM and a koff [2] of 0.00255 s⁻¹. The kon [2] was 682000 M⁻¹ s⁻¹, the “Ratio(+/-)” value [3] was 17.1 and the “A405+” value [4] was 1.77 A405. For the same binder, the positive rate [5] was 99.9%.

B3: Nanobody No. 26 (VHH)
VHH: QVQLQESGGGSVQAGETLRLSCTASGFTFDDSDMGWYRQAPGNECELVSSISSDGSTYYADSVKGRFTISQDNAKNTVYLQMNSLKPEDTGVYYCAAEGHRYELGTCAALDYWGRGTQVTVSS
notes: camel VHH from pMECs phage display vector; also called Antibody no; 26; not shown: tags (HA, His) implied by anti-HA detection and nickel column
B3 gave a positive rate [1] of 16.7%, a Kd [2] of 1.31 nM and a koff [2] of 0.00112 s⁻¹. For the same binder, the kon [2] was 857000 M⁻¹ s⁻¹, the “Ratio(+/-)” value [3] was 21.1 and the “A405+” value [4] was 1.9 A405. For the same binder, the positive rate [5] was 99.9%.

B4: Nanobody No. 13 (VHH)
VHH: QVQLQESGGGSVQAGETLRLSCTASGFTFDDSDMGWYRQAPGNECELVSTISADGSTFYADSVKGRFTISQDNAKNTVYLQMNSLKPEDTAVYYCASPENEYELGTCEALDYWGQGTQVTVSS
notes: camel VHH from pMECs phage display vector; also called Antibody no; 13; not shown: tags (HA, His) implied by anti-HA detection and nickel column
Binder B4 has a positive rate [1] of 14.2%, a Kd [2] of 1.18 nM and a koff [2] of 0.0015 s⁻¹. For the same binder, the kon [2] was 1.27e+06 M⁻¹ s⁻¹, the “Ratio(+/-)” value [3] was 25.1 and the “A405+” value [4] was 2.24 A405. The positive rate [5] was 99.9%.

B5: Nanobody No. 22 (VHH)
VHH: QVQLQESGGGSVQAGGSLRLSCTASGFTFDDSDMGWYRQAPGNECELVSRISRDGTTYYADSVKGRFTISQDNAKNTVYLQMNSLKPEDTAVYYCADINSGYELGTCESLDYWGRGTQVTVSS
notes: camel VHH from pMECs phage display vector; also called Antibody no; 22; not shown: tags (HA, His) implied by anti-HA detection and nickel column
B5 showed a positive rate [1] of 5.8%, a Kd [2] of 1.98 nM and a koff [2] of 0.0019 s⁻¹. The kon [2] was 957000 M⁻¹ s⁻¹, the “Ratio(+/-)” value [3] was 21.3 and the “A405+” value [4] was 1.78 A405. It also gave a positive rate [5] of 99.7%.

B6: Nanobody No. 9 (VHH)
VHH: QVQLQESGGGSVQAGETLRLSCTASGFTFDDSDMGWYRQAPGSECELVSTISSDGNTYYSNSVKGRFTISQDNAKNTVYLQMNSLKPEDTAVYYCAADDQHYELGTCEALDYWGRGTQVTVSS
notes: camel VHH from pMECs phage display vector; also called Antibody no; not shown: tags (HA, His) implied by anti-HA detection and nickel column
For B6, the positive rate [1] was 9.5%, the Kd [2] was 3.6 nM and the koff [2] was 0.00397 s⁻¹. The kon [2] was 1.11e+06 M⁻¹ s⁻¹, the “Ratio(+/-)” value [3] was 24.3 and the “A405+” value [4] was 2.15 A405. It also gave a positive rate [5] of 99.8%.

B7: Nanobody No. 10 (VHH)
VHH: QVQLQESGGGSVQAGETLKLSCTASGFTFDDSTMAWYRQAPGNECKLVSTISSDGSTYYADSVKGRFTISQDNAKNTVYLQMNSLKPEDTAVYYCAADDQNYELGTCEALDYWGRGTQVTVSS
notes: camel VHH from pMECs phage display vector; also called Antibody no; 10; not shown: tags (HA, His) implied by anti-HA detection and nickel column
In the case of B7, the positive rate [1] is reported as 10.6%, the Kd [2] is reported as 6.47 nM and the koff [2] is reported as 0.00457 s⁻¹. For the same binder, the kon [2] was 706000 M⁻¹ s⁻¹, the “Ratio(+/-)” value [3] was 22.4 and the “A405+” value [4] was 1.63 A405. For the same binder, the positive rate [5] was 99.7%.
